Laboratory results from patent US20220193114A1.

Molecular target: MuSK (wild type, full length, mouse) (mouse) (UniProt Q61006)
Assay: cell-based or functional assay

UniProt Q61006, sequence (Q61006 22-868): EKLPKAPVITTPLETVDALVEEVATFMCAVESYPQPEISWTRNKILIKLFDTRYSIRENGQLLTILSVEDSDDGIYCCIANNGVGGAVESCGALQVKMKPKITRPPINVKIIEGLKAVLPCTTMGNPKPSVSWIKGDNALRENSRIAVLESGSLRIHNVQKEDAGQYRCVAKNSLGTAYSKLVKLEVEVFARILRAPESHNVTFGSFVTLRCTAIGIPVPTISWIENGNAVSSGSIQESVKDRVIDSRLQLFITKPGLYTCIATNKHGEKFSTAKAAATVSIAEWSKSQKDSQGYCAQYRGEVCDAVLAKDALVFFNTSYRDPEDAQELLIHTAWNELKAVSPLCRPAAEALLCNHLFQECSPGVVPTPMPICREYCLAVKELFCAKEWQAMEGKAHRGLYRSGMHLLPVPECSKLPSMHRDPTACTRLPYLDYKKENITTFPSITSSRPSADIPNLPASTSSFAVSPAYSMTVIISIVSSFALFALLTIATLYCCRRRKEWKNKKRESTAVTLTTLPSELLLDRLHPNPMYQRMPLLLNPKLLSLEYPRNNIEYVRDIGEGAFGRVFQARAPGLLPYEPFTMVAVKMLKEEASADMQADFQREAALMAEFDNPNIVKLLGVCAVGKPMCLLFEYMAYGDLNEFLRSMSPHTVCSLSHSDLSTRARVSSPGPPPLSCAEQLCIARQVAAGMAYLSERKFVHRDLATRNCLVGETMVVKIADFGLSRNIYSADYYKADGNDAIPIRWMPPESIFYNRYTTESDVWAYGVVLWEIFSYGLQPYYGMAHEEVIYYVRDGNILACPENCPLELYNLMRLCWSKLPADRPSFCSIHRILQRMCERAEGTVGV

BMP4 (ligand)
transcription of Wnt11 in response to BMP4 (qRT-PCR, primary myotubes), WT response relative to ΔIg3-MuSK response (fold (WT response / ΔIg3-MuSK response)): 2.2
transcriptional response of Dok7 to BMP4 (qRT-PCR, primary myotubes), WT response relative to ΔIg3-MuSK response (fold (WT response / ΔIg3-MuSK response)): 1.6
